{"source": "patent US20230257444A1", "about": "“FUSION PROTEIN AND COMBINATIONS THEREOF” (Agency for Science, Technology and Research, priority 2020, published 2023)", "assay_in_all_cases": "Surface plasmon resonance: binding to immobilised Fc receptor", "key": {"FcRn": {"target": "T1, FcRn (Homo sapiens, UniProt P55899)", "T1 construct": "soluble ectodomains of FcR from R&D Systems; purchased R&D Systems 8639-FC-050", "T1 sequence (P55899 24-297 limits assumed)": "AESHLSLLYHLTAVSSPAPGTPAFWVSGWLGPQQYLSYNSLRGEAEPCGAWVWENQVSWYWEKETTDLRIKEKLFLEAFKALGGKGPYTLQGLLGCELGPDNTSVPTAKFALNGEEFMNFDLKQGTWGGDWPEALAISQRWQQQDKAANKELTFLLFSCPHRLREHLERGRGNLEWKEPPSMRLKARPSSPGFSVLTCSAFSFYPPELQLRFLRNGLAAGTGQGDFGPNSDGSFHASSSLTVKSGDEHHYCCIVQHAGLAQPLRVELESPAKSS", "T1 sequence (P61769 21-119 partner)": "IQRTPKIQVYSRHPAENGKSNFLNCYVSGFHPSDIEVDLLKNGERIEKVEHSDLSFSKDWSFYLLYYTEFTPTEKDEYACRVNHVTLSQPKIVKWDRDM", "settings": "SPR", "source_text": "(§1) A BIAcore T200 SPR Biosensors (GE Healthcare) was used to assay the interaction of soluble ectodomains of FcR from R&D Systems with hDectin1-Fc and IgG1. Amine coupling via N-hydroxysuccinimide ester was formed on a CM5 sensor chip surface according to a procedure recommended by the manufacturer. Ectodomains were immobilized at acidic pH, resulting in the following densities: FcγRI (#1257-FC-050): 1919 RU, FcγRIIa (#1330-CD-050/CF):1766 RU, FcγRIIb/c (#1875-CD-050): 1972 RU, FcγRIIIa (#4325-FC-050): 2275 RU, FcγRIIIb (#1597-FC-050/CF): 2393 RU, FcRn (#8639-FC-050): 2836. A range of hDectin1-Fc/IgG1 concentrations was injected into flow cells at a flow rate of […], with a contact and dissociation time of 300 and 900 seconds, respectively. After each assay cycle, the sensor chip surface was regenerated using 10 mM NaOH. Binding response was recorded as resonance units (RU; 1 RU=1 pg/mm^2) continuously, with background binding automatically subtracted. Due to the polyclonal nature of the hDectin1-Fc/IgG1 recombinant proteins used, kinetic constants (kon, koff, t1/2) were not determined, and the KD was calculated by analyzing the concentration-dependence of the steady-state signal reached at the end of the injection using BIA evaluation version 3 software (GE Healthcare) and Scrubber version 2 software (BioLogic Software, Campbell, Australia). The steady-state response was plotted against the concentration of hDectin1-Fc/IgG1 and fitted using Origin software.\n(§2) Antibody mediated immune activation depends on the strength of binding and affinity of the Fc to the various Fcγ receptors. Binding to the neonatal receptor FcRn is also important for the half-life in serum and the transcytosis across endothelial cells into various tissues. Surface plasmon resonance was used to evaluate the binding of the Immunoglobulin G's Fc of hDectin1-Fc to the various Fc receptors (FcγRI, FcγRIIa, FcγRIIb, FcγRIIIa, FcγRIIIb and FcRn) present on immune cells by flowing free hDectin1-Fc of various concentrations over immobilised Fc receptors (FIG. 11A-F). […] High affinity FcγRI(CD64) is expressed on macrophages, monocytes and neutrophils and low affinity FcγRIIIa (CD16a) is expressed on natural killer cells, monocytes, macrophages and neutrophils. Both CD64 and CD16a activating receptors have Immunoreceptor Tyrosine based Activation Motif (ITAM) signalling domain. FcγRI strongly binds IgG opsonized targets to trigger phagocytosis and a proinflammatory response of TNFα, IFNγ and production of oxidative species. FcγRIIIa likewise activate degranulation, phagocytosis, and oxidative burst."}, "FcγRI": {"target": "T2, FcγRI (Homo sapiens, UniProt P12314)", "T2 construct": "soluble ectodomains of FcR from R&D Systems; purchased R&D Systems 1257-FC-050", "T2 sequence (P12314 16-292 limits assumed)": "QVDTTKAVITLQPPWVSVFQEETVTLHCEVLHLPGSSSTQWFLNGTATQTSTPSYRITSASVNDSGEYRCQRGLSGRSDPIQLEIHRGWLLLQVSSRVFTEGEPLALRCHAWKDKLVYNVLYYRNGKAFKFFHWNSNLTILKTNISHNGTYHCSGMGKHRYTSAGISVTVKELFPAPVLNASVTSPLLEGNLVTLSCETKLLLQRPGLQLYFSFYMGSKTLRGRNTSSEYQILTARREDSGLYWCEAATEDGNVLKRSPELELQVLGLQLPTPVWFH", "settings": "SPR", "source_text": "as §1, §2"}, "FcγRIIIa": {"target": "T3, FcγRIIIa (Homo sapiens, UniProt P08637, F176V)", "T3 construct": "soluble ectodomains of FcR from R&D Systems; purchased R&D Systems 4325-FC-050", "T3 sequence (P08637 17-208 F176V limits assumed)": "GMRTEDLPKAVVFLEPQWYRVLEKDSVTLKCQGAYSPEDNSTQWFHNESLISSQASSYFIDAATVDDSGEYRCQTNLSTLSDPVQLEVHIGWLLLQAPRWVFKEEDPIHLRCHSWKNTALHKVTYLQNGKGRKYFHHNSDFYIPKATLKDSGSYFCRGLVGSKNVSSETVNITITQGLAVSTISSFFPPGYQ", "settings": "SPR", "source_text": "as §1, §2"}, "FcγRIIIb": {"target": "T4, FcγRIIIb (Homo sapiens, UniProt O75015)", "T4 construct": "soluble ectodomains of FcR from R&D Systems; purchased R&D Systems 1597-FC-050/CF", "T4 sequence (O75015 17-200 limits assumed)": "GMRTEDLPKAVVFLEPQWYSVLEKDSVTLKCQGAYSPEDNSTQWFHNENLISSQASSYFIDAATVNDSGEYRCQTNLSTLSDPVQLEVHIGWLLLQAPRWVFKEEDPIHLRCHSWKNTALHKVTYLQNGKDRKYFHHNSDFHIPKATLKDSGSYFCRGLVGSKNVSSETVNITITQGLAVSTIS", "settings": "SPR, steady state", "source_text": "as §1, §2"}, "FcγRIIa": {"target": "T5, FcγRIIa (Homo sapiens, UniProt P12318, H167R)", "T5 construct": "soluble ectodomains of FcR from R&D Systems; purchased R&D Systems 1330-CD-050/CF", "T5 sequence (P12318 34-217 H167R limits assumed)": "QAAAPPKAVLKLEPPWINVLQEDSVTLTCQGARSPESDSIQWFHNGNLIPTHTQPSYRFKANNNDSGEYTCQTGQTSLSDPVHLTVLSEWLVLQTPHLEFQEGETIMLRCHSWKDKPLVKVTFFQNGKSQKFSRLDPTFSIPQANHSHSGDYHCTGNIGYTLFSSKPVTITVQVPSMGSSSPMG", "settings": "SPR, steady state", "source_text": "as §1, §2"}, "FcγRIIb": {"target": "T6, FcγRIIb (Homo sapiens, UniProt P31994)", "T6 construct": "soluble ectodomains of FcR from R&D Systems; purchased R&D Systems 1875-CD-050", "T6 sequence (P31994 43-217 limits assumed)": "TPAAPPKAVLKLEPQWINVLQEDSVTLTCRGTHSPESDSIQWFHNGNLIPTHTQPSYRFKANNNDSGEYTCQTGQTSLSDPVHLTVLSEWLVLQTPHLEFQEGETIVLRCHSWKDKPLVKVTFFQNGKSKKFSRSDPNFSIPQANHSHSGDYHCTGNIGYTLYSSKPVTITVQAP", "settings": "SPR, steady state", "source_text": "as §1, §2"}}, "data": [{"substance": "hDectin1-Fc: soluble dimeric fusion protein: human Dectin-1 receptor polypeptide (aa 73-247) fused to human IgG1 Fc via hinge; SEQ ID NO: 5", "values": [{"measurement": "KD for FcRn compared with Herceptin", "setting": "FcRn", "result": "moderately weaker binding"}, {"measurement": "binding to FcRn (Binding Constant KD screen)", "setting": "FcRn; steady state", "result": "able to interact with and bind to"}, {"measurement": "KD for FcγRI compared with Herceptin", "setting": "FcγRI", "result": "moderately weaker binding"}, {"measurement": "binding to FcγRI (Binding Constant KD screen)", "setting": "FcγRI; steady state", "result": "able to interact with and bind to"}, {"measurement": "KD for FcγRIIIa compared with Herceptin", "setting": "FcγRIIIa", "result": "moderately weaker binding"}, {"measurement": "binding to FcγRIIIa (Binding Constant KD screen)", "setting": "FcγRIIIa; steady state", "result": "able to interact with and bind to"}, {"measurement": "binding to FcγRIIIb (Binding Constant KD screen)", "setting": "FcγRIIIb", "result": "bind to FcγRI, FcγRIIIa and FcRn only"}, {"measurement": "binding to FcγRIIa (Binding Constant KD screen)", "setting": "FcγRIIa", "result": "bind to FcγRI, FcγRIIIa and FcRn only"}, {"measurement": "binding to FcγRIIb (Binding Constant KD screen)", "setting": "FcγRIIb", "result": "bind to FcγRI, FcγRIIIa and FcRn only"}]}]}
